# According to article PMC10992996, “Human CRB1 and CRB2 form homo- and heteromeric protein complexes in the retina” (Life Science Alliance, 2024):
# T1: CRB1-FLAG p.G1103R (human, UniProt P82279 26-1406, p.G1103R)
# T1 construct: Crumbs homolog 1, canonical form, human, cDNA NM_202153 as printed, with a patient missense mutation in the last laminin G domain; Made by site-directed mutagenesis of m1; also called CRB1 p.G1103R; CRB1-FLAG MT; source: HEK293T, transfected, in lysate; not shown: Strep-Strep-FLAG, N-terminal, kept
# T1 sequence (looked up): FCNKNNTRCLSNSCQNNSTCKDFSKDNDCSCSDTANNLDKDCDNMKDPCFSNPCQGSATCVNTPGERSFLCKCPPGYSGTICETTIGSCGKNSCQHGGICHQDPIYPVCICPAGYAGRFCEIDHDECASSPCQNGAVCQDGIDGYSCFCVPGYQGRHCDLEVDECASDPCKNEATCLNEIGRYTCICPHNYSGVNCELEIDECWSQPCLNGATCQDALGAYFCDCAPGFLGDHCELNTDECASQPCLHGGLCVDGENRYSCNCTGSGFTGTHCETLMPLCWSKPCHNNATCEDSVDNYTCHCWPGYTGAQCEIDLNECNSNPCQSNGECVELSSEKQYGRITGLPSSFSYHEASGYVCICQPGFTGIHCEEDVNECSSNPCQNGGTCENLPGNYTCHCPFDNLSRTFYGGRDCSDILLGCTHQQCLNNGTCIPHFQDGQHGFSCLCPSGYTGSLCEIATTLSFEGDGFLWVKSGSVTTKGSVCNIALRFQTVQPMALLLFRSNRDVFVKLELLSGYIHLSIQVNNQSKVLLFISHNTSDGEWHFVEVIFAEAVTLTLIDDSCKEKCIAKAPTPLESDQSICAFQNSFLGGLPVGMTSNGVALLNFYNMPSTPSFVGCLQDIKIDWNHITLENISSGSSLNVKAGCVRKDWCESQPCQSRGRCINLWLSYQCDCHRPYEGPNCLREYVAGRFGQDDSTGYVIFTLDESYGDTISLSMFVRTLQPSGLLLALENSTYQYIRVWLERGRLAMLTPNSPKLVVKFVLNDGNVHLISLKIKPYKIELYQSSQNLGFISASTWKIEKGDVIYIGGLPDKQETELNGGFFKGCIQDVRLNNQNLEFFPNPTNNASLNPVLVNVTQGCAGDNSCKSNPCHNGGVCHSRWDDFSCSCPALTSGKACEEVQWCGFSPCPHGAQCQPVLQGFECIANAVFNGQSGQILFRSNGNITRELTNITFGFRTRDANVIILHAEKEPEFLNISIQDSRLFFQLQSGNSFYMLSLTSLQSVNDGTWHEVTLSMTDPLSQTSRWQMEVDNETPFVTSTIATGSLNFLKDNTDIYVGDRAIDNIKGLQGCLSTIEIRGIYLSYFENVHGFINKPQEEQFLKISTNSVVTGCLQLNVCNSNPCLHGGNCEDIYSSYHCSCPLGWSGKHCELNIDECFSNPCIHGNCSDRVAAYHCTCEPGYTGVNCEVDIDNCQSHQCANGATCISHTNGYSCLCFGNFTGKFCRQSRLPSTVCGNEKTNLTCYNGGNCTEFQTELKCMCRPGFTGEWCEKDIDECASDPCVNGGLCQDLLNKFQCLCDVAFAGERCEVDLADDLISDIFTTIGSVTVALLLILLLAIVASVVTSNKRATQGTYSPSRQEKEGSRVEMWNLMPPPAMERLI
# Target: T1, CRB1-FLAG p.G1103R
# Assay: co-IP; HEK293T cells co-transfected pairwise with a FLAG and an HA construct, 48 h; lysis in TBS (30 mM Tris-HCl pH 7.4, 150 mM NaCl) with 0.5% Nonidet P40; FLAG-IP on ANTI-FLAG M2 Affinity Gel 60-90 min at 4°C, elution with FLAG peptide; Western blot with HA and FLAG antibodies; for mutants HA/FLAG signal in eluates relative to WT, three biological replicates
# Conditions: partners not purified
binder,measurement,value
"Human canonical CRB2 (Crumbs homolog 2) (natural protein, Crumbs homolog 2, human, cDNA NM_173689; Stood as bait (FLAG copy) and as prey (HA copy) in the pairwise co-IP matrix; each copy carries only one of the two tags; The FLAG copy was the bait of the mass spectrometry pull-downs; also called CRB2-FLAG; CRB2-HA; source: HEK293T, transfected, in lysate (co-IP); HEK293T, transfected, FLAG-IP on beads, washed and purified with 0.01% SDS (retina …)) not shown",percent reduction of the interaction relative to CRB1 WT,~30%
